# Tests used:
# [1] = molecular target: salmon calcitonin (salmon) (UniProt P01263)
# [2] = molecular target: PEG7-Octyl-Salmon Calcitonin, Diconjugate (salmon) (UniProt P01263)
# [3] = molecular target: PEG7-Octyl-Salmon Calcitonin, Diconjugate (salmon) (UniProt P01263); remark: listed apart in the source
# [4] = molecular target: salmon calcitonin (salmon) (UniProt P01263); remark: listed apart in the source
Substance,"% Remaining Following 0.5 U/mL Chymotrypsin Digest (60 min, non-formulated) [1] [% remaining]","% Remaining Following 0.5 U/mL Chymotrypsin Digest (60 min, non-formulated) [2] [% remaining]","% Remaining following 1 U/mL Trypsin Digest (180 min, non-formulated) [3] [% remaining]","% Remaining following 1 U/mL Trypsin Digest (180 min, non-formulated) [4] [% remaining]"
Chymotrypsin (enzyme),5,6,–,–
Trypsin (enzyme),–,–,61,31
